One substance from US20060104974A1 can be followed below.

Test [1] addresses CD147 on cells (human) (UniProt P35613). Nature of the test: two-colour FACS of activated lymphocytes, CBL against CD25.
For test [2], the target named is Hu-CD147IgG2 fusion protein (human). Nature of the test: BIAcore, surface Hu rCD147-IgG 791 RU.

Sequence of ABX-CBL antibody (HC): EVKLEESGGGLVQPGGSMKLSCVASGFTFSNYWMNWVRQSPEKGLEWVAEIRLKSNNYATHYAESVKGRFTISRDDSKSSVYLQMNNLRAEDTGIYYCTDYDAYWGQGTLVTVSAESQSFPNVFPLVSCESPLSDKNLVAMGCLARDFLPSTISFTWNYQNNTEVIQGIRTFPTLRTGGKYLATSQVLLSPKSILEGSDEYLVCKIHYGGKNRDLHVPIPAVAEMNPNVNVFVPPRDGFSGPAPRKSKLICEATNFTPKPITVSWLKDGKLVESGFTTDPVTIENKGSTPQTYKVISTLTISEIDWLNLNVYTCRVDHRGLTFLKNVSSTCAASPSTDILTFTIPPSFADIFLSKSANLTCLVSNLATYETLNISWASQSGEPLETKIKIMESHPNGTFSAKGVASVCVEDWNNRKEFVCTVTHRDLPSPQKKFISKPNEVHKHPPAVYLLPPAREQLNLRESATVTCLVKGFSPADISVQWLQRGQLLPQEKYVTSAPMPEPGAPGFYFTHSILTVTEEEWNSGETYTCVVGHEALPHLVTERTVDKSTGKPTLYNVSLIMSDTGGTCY
Sequence of ABX-CBL antibody (LC): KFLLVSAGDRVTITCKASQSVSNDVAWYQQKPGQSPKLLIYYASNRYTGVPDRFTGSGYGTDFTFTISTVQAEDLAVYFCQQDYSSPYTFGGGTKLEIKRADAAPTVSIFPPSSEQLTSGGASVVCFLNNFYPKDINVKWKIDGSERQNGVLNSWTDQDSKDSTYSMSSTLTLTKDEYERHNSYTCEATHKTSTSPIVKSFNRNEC
Sequence of CD147 on cells (human) (P35613 other isoform, or with tags, fused parts or gaps limits assumed): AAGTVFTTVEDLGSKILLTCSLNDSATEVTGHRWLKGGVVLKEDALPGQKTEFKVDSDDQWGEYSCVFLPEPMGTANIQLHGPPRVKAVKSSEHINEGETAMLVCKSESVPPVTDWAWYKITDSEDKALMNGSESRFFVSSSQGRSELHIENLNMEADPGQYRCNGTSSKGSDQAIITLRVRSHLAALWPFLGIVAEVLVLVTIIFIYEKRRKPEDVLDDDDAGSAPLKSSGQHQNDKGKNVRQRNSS

What is called Kd is the equilibrium constant for the complex coming apart. Read a low Kd as tighter binding. The term koff denotes the rate constant with which the complex falls apart. A lower koff goes with slow dissociation. As a reminder, the kon is the second-order rate constant of association. A high value points to fast association. In test [1], ABX-CBL antibody yielded a % of cells in quadrant CBL negative / CD25 negative of 29.6%, a % of cells in quadrant CBL negative / CD25 positive of 1.6%, a % of cells in quadrant CBL positive / CD25 negative of 18.9% and a % of cells in quadrant CBL positive / CD25 positive of 50%. Also, in test [2], the Ka was 1.39e+09 M⁻¹, the Kd amounted to 0.518 nM, the koff amounted to 0.000376 s⁻¹ and the kon is 725000 M⁻¹ s⁻¹.
